# Measurements from patent US20220411531A1 (SUMGEN MAB BEIJING BIOTECH, published 2022).
# B1: antibody 6G12M31 (antibody, V domains shown)
# VH: QVQLVQSGPGLVKPSQSLSLTCSVTGFSISSGYYWNWIRQFPGQKLEWMGYRSYDGSNNYDPSLKNRISITRDTSKNQFFLKLNSVTSEDTATYYCARGWLLHYTMDYWGQGTTVTVSS
# VL: DIVMTQSPSSVSVTLGQSASISCRSSRSLLHSNGFTYLYWYLQKPGQSPQLLIYQMSNLASGVPDRFSGSGSGTDFTLKISRVEAEDVGVYYCGQNLELPLTFGGGTKLEIK
# B2: antibody 6G12M41 (antibody, V domains shown)
# VH: QVQLVQSGPGLVKPSQSLSLTCSVTGFSISSGYYWNWIRQFPGQKLEWMGYRSYDGSNNYGPSLKNRISITRDTSKNQFFLKLNSVTSEDTATYYCARGWLLHYTMDYWGQGTTVTVSS
# VL: DIVMTQSPSSVSVTLGQSASISCRSSRSLLHSNGFTYLYWYLQKPGQSPQLLIYQMSNLASGVPDRFSGSGSGTDFTLKISRVEAEDVGVYYCGQNLELPLTFGGGTKLEIK
# B3: antibody 6G12M11 (antibody, human IgG1, kappa, V domains shown)
# VH: QVQLVQSGPGLVKPSQSLSLTCAVTGFSISSGYYWNWIRQFPGQKLEWMGYRSYDGSNNYNPSLKNRISITRDTSKNQFFLKLNSVTSEDTATYYCARGWLLHYTMDYWGQGTTVTVSS
# VL: EIVMTQSPSSVSVTLGQSASISCRSSRSLLHSNGFTYLYWYLQKPGQSPQLLIYQMSNLASGVPDRFSGSGSGTDFTLKISRVEAEDVGVYYCGQNLELPLTFGGGTKLEIKR
# B4: antibody 6G12M21 (antibody, human IgG1, kappa, V domains shown)
# VH: QVQLVQSGPGLVKPSQSLSLTCSVTGFSISSGYYWNWIRQFPGQKLEWMGYRSYDGSNNYNPSLKNRISITRDTSKNQFFLKLNSVTSEDTATYYCARGWLLHYTMDYWGQGTTVTVSS
# VL: DIVMTQSPSSVSVTLGQSASISCRSSRSLLHSNGFTYLYWYLQKPGQSPQLLIYQMSNLASGVPDRFSGSGSGTDFTLKISRVEAEDVGVYYCGQNLELPLTFGGGTKLEIKR
# Tests used:
# [1] = target: T1, MER-His (ACRO Biosystems) (UniProt Q12866 21-499, limits assumed); assay: ELISA, MER-His coated at 1 µg/ml, anti-human IgG Fab-HRP, OD450
# T1 construct: Bought reagent; not shown: His tag
# T1 sequence (looked up): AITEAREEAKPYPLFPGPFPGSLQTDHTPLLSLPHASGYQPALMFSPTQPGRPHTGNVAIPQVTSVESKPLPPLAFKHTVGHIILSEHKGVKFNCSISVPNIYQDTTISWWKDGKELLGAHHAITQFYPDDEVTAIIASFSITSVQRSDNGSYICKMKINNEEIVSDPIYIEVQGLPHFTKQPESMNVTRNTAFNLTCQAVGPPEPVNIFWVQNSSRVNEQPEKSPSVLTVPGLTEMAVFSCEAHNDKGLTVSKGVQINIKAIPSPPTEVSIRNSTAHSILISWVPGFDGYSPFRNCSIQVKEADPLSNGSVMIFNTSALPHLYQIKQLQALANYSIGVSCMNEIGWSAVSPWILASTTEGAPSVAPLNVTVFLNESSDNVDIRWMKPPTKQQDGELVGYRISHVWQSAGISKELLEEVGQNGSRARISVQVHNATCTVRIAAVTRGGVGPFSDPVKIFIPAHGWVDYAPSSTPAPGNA
# Protocol: AXL, TRYO3, and MER are all members of the TYRO3 receptor tyrosine kinase subfamily. To verify the recognition specificity of the antibodies 6G12M11, 6G12M21, 6G12M31 and 6G12M41, the binding ability of these antibodies to other members of the AXL family is tested by the ELISA method.
# (§1) TYRO3-Fc (ACRO Biosystems), MER-His (ACRO Biosystems), and AXL-His (Sino Biological Inc.) each were coated at 1 μg/ml on an ELISA strip, which was held at 4° C. overnight. After the ELISA strips were washed with PBST, 10% fetal bovine serum was added to the ELISA strip, which was blocked for 1 hour at 37° C. Antibodies […], 6G12M21, 6G12M31 and 6G12M41 were added to react at 37° C. for 1 hour. After the ELISA strips were washed with PBST, horseradish peroxidase-labeled goat anti-human IgG Fab secondary antibodies (Goat Anti-Human IgG (Fab′)₂ (HRP), Abcam) were added to react for 30 minutes at 37° C. The ELISA strips were washed 5 times with PBST, and patted and dried on absorbent paper to remove residual droplets as much as possible. 100 μl of TMB (eBioscience, #85-00-420) was added to each well, and the ELISA strips were held for 1.5 min at room temperature (20±5° C.) in the dark. 100 μl of 2N H₂SO₄ stop solution was added to each well to terminate substrate reaction. The OD value was read at 450 nm by a microplate reader to analyze the binding ability of antibodies to the proteins.
# [2] = target: T2, AXL-His (Sino Biological Inc., 6x His labels, molecular weight 47.5 Kda) (UniProt P30530-2 26-440, limits assumed); assay: ELISA, AXL-His coated at 1 µg/ml, anti-human IgG Fab-HRP, OD450
# T2 construct: Bought reagent; also called target antigen AXL-His; target antigen AXL; not shown: 6x His tag
# T2 sequence (looked up): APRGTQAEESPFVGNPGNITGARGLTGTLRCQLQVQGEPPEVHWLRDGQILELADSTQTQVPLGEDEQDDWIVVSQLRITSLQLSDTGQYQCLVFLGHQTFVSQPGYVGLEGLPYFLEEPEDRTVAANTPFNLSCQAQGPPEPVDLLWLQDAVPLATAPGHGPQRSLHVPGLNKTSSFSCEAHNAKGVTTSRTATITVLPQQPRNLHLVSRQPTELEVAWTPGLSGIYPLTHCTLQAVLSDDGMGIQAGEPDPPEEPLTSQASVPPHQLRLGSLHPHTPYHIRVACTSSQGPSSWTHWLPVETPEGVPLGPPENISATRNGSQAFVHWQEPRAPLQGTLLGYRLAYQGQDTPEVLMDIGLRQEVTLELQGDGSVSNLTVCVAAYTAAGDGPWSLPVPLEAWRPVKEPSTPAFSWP
# Protocol: as §1
Binder,binding result [1],EC50 (read off the curve) [2]
B1,no binding (tested: about 1 µg/mL),~0.03 µg/mL
B2,no binding (tested: about 1 µg/mL),~0.03 µg/mL
B3,no binding (tested: about 1 µg/mL),~0.03 µg/mL
B4,no binding (tested: about 1 µg/mL),~0.03 µg/mL
